The source of these data is US20220340642A1 (Kyowa Kirin, published 2022).

Where a chain is given by its changes, count along the chain named. Numbers in names are those of the source.

Assay [1] has as its target T1, soluble recombinant of human TL1A (His6, GS linker, Leu72-Leu251) (human, UniProt O95150 72-251).
T1 construct: also called His6-TL1A; hTL1A
T1 sequence: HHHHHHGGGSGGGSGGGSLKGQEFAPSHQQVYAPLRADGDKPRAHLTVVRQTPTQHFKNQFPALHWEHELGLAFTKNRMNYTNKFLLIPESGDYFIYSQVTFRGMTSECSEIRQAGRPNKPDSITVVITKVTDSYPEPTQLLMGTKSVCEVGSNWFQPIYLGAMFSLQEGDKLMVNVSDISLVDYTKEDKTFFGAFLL
The experiment in a line: SPR, binder captured on Protein A chip. How it is done:
(§1) The binding activity to human and cynomolgus monkey DcR3 ligand trimers were analyzed by the SPR method. BIAcore T-100 (GE Healthcare) was used for measurement of the binding activities to human LIGHT, cynomolgus monkey LIGHT, human TL1A and cynomolgus monkey TL1A, and BIAcore T-200 (GE Healthcare) was used for measurement of the binding activities to human FasL and cynomolgus monkey FasL. As the buffer, HBS-EP+Buffer was used.
(§2) Various DcR3 variants were injected into Series S Sensor Chip Protein A (GE Healthcare) at 10 μL/min for 30 seconds and captured. Meanwhile, the buffer containing no protein was injected into a reference flow cell. Thereafter, as an analyte, each human DcR3 ligand trimer or each cynomolgus monkey DcR3 ligand trimer diluted to 0.08 to 20 nmol/L was injected. A human LIGHT trimer, a human TL1A trimer or each cynomolgus monkey DcR3 ligand trimer was injected at the flow rate of 30 μL/min for 2 minutes to monitor the binding, and subsequently the buffer was injected for 5 minutes to monitor dissociation. A human FasL trimer was injected at 30 μL/min for 1 minute to monitor the binding, and subsequently the buffer was injected for 3 minutes to monitor dissociation. Then, 3 mol/L magnesium chloride was injected at 30 μL/min for 1 minute to perform a regeneration reaction.
(In general: Surface plasmon resonance follows binding to a sensor surface in real time, without labels.)

For assay [2], the target named is T2, soluble recombinant of cynomolgus monkey TL1A (His6, GS linker, Leu72-Leu251) (cynomolgus monkey).
T2 construct: also called His6-cynoTL1A
T2 chain: T1 sequence with F57L, I96V
Nature of the assay: SPR, binder captured on Protein A chip. How it is done: as §1, §2

Assay [3] concerns the target T3, soluble recombinant of cynomolgus monkey FasL (His6, Pro133-Leu280) (cynomolgus monkey, UniProt P63308 133-280).
T3 construct: also called His6-cynoFasL
T3 sequence: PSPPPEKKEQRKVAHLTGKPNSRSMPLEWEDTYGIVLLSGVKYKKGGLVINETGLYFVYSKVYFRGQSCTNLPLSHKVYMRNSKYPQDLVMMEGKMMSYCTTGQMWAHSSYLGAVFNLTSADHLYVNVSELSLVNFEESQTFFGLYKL
Nature of the assay: SPR, binder captured on Protein A chip. How it is done: as §1, §2

The target in assay [4] is T4, FLAG-LIGHT (FLAG tag, human LIGHT Asp74-Val240) (human, UniProt O43557 74-240).
T4 construct: SEC trimer fraction; also called soluble recombinant FLAG-LIGHT trimer; soluble human LIGHT trimer
Nature of the assay: SPR, binder captured on Protein A chip. How it is done:
as §1, §2

Assay [5] concerns the target T5, Human His6 Fas Ligand/TNFSF6 (Cell Signaling Technology, Inc.) (human, UniProt P48023 133-281).
T5 construct: Bought; confirmed as a trimer by SEC-MALS; also called recombinant human His6 Fas Ligand; soluble human FasL trimer
T5 sequence: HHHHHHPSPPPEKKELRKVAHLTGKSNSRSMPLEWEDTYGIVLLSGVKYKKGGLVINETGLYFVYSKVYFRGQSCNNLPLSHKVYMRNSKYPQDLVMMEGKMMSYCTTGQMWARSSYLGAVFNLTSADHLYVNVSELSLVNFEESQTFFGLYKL
Nature of the assay: SPR, binder captured on Protein A chip. As for the experimental part:
as §1, §2

Assay [6] deals with T6, FLAG-cynoLIGHT (FLAG tag, cynomolgus monkey LIGHT Asp74-Val240) (cynomolgus monkey).
T6 construct: SEC trimer fraction; also called soluble cynomolgus monkey LIGHT trimer
T6 chain: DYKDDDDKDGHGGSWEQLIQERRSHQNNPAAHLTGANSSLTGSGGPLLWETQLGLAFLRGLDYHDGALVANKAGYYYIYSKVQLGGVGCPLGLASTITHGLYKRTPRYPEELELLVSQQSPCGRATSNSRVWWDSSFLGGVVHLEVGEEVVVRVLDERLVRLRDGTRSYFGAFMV
Nature of the assay: SPR, binder captured on Protein A chip. How it is done:
as §1, §2

In assay [7] the target is T7, soluble recombinant of human TL1A (His6, GS linker, Leu72-Leu251) (UniProt O95150 72-251).
T7 chain: T1 sequence
The experiment in a line: BIAcore SPR. In outline:
(§3)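 The dissociation constant (Kd, nM) reflects binding of each test molecule to soluble recombinant His-tagged human or cynomolgus monkey LIGHT, TL1A or FasL. It was derived from surface plasmon resonance measurements in HBS-EP+ Buffer using a BIAcore T-100 or T-200 instrument (GE Healthcare).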

In assay [8] the target is T8, soluble recombinant of human LIGHT (His10, GS linker, Asp74-Val240).
T8 chain: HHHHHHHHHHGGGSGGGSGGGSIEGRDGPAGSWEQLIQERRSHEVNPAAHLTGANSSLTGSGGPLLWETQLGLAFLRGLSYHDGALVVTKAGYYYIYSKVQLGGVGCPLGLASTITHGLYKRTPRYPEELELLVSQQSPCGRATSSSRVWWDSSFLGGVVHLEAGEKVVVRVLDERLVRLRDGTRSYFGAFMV
Nature of the assay: BIAcore SPR. In outline: as §3

In assay [9] the target is T9, soluble recombinant of human FasL (His6, Pro134-Leu281) (UniProt P48023 134-281).
T9 chain: T3 sequence with Q10L, P20S, T70N, H108R
The experiment in a line: BIAcore SPR. In outline:
as §3

B1: chimera A-E57R-Fc (Eg1S YTE) (Fc fusion)
chain: ETFPPKYLHYDEETSHQLLCDKCPPGTYLKQHCTAKWKTVCAPCPPRHYTQFWNYLRRCRYCNVLCGEREEEARACHATHNRACRCRTGFFAHAGFCLEHASCPPGAGVIAPGTPSQNTQCQPCPDGFFSNETSSKAPCRKHTNCSVFGLLLTQKGNATHDNICSGNSESTQKEPKSSDKTHTCPPCPAPELLGGPSVFLFPPKPKDTLYITREPEVTCVVVDVSHEDPEVKFNWYVDGVEVHNAKTKPREEQYNSTYRVVSVLTVLHQDWLNGKEYKCKVSNKALPAPIEKTISKAKGQPREPQVYTLPPSRDELTKNQVSLTCLVKGFYPSDIAVEWESNGQPENNYKTTPPVLDSDGSFFLYSKLTVDKSRWQQGNVFSCSVMHEALHNHYTQKSLSLSPGK
As to B1, the binding result in assay [1], in [2], in assay [3], in assay [4], in [5] and in [6] was “binds” throughout. Moreover, the figures for the Kd in [7], in [8] and in assay [9] were 0.33 nM, 0.39 nM and 5.1 nM, respectively.

B2: chimera A-E57R-Fc (Eg1S LALAGANA) (Fc fusion)
chain: B1 chain with L192A, L193A, G195A, Y210M, T212S, E214T, N392A
Consider B2, for which the binding result in assay [1], in [2], in assay [3], in [4], in assay [5] and in assay [6] was “binds” each time. In addition, the results for the dissociation constant Kd in assay [7], in [8] and in [9] were 0.31 nM, 0.38 nM and 4.6 nM, respectively.

B3: chimera A-E57K-Fc (Eg1S YTE) (Fc fusion)
chain: B1 chain with R57K
Take B3: the binding result in assay [1], in assay [2], in assay [3], in assay [4], in assay [5] and in assay [6] was “binds” each time. The dissociation constant (Kd) was 0.28 nM in assay [7], 0.38 nM in [8] and 4.3 nM in [9].

Broadly, the Kd is the concentration at which binding is half-saturated.
